Among the data in the RNAGym collection of RNA variant scans (doi:10.7554/elife.80360) are self-cleavage values, retold here.

The labels stand for the following.
B1: Hairpin Ribozyme (parent)
chain: GUCCUCUUUCACGUGCGCGUGAAAGAGAGAAGUGAACCAGAGAAACACACGUUGUGGUAUAUUACCUGGUA

In this data set the parent is B1. The data set can be described thus: self-cleavage, relative activity (ratio to wild type); higher = more cleavage; co-transcriptional.
For the variant C50A U52A, the self-cleavage was 0.293.
Take C48U A61C: the self-cleavage was found to be 0.128.
Consider G51C G69C, for which the self-cleavage was found to be 0.28.
Turning to U52G G69A, the self-cleavage was 0.263.
The figure for C48A C66U is 0.202; for C48A C66G it is 0.245; for G51U U52C it is 1.
Take C48U G56U: the self-cleavage amounted to 0.231.
For the variant C48A C50A, the self-cleavage turned out to be 0.188.
As for C48A C50U, the self-cleavage was 0.131.
For A49U U67G, the self-cleavage is 0.109.
For the variant C50U A71C, the self-cleavage came to 0.925.
With C50U A71U the figure was 0.211; with C50A U58G, 0.242; with G51C U53C, 0.828.
For the variant G51C U53G, the self-cleavage is 0.675.
With C50A A71U, the self-cleavage was 0.227.
With C50A A71C the figure was 0.816; with U52A C66G, 0.149; with U52A C66U, 0.604.
With C50A C65U the figure was 0.179.
For U52C U58A, the self-cleavage stood at 0.67.
The figure for C50A C66A is 0.145; for C48A A64U it is 0.0412.
Regarding A49U C50A, the self-cleavage came to 0.293.
For A49U C50G, the self-cleavage worked out at 0.193.
In the case of C50U G56A, the self-cleavage was 0.203.
Turning to C50A A61G, the self-cleavage was found to be 0.12.
In the case of C48A A61C, the self-cleavage was found to be 0.201.
The figure for C50U A64G is 0.216.
Consider C48G A61C, for which the self-cleavage was found to be 0.0868.
The figure for C48G A61G is 0.131.
With A47U, the self-cleavage came out at 0.154.
The figure for A49G U62G is 0.0712; for A49G U62A it is 0.0894.
The figure for G51C G54A is 0.136; for U52A G68C it is 0.231; for A49C A71G it is 0.177.
In the case of U52G A64U, the self-cleavage came to 0.183.
For the variant C48U U55A, the self-cleavage was determined as 0.196.
With C48U U55G, the self-cleavage came out at 0.223.
Regarding G51C U62A, the self-cleavage turned out to be 0.141.
With G51C U62G the figure was 0.184; with A49U A59G, 0.091.
Consider C50G G69U, for which the self-cleavage came out at 0.156.
A49G U52C: the self-cleavage came to 0.502.
As to A49G U52G, the self-cleavage amounted to 0.371.
With A49G U52A, the self-cleavage is 0.614.
With C48U G68A the figure was 0.244; with C48U G68C, 0.247; with C48A G69U, 0.121.
On to C48A G69A, for which the self-cleavage stood at 0.173.
With U52C C65G, the self-cleavage was determined as 0.426.
Regarding C48G C66U, the self-cleavage turned out to be 0.156.
On to U52A A59U, for which the self-cleavage was 0.243.
For C48G U70A, the self-cleavage turned out to be 0.144.
In the case of C48G U70G, the self-cleavage was determined as 0.0256.
For the variant G51U C66U, the self-cleavage was determined as 0.599.
With G51U C65A the figure was 1.21; with G51U C65U, 0.284.
For U52G G54C, the self-cleavage stood at 0.42.
As to U52G G54U, the self-cleavage was determined as 0.417.
As to U52G G54A, the self-cleavage worked out at 0.375.
Turning to A49U A61U, the self-cleavage came to 0.108.
For A49U A61G, the self-cleavage was 0.13.
Take A47G G69A: the self-cleavage was 0.0811.
With C48U A59C, the self-cleavage is 0.222.
Turning to C48U A59G, the self-cleavage turned out to be 0.121.
Take U52G G56A: the self-cleavage amounted to 0.19.
The figure for A47U C48A is 0.157; for A47U C48U it is 0.112; for G51C U60A it is 0.589.
As for G51C U60C, the self-cleavage amounted to 1.23.
With C48A U53C, the self-cleavage turned out to be 0.18.
Turning to C50G U67A, the self-cleavage amounted to 0.274.
Consider C50G U67G, for which the self-cleavage was found to be 0.101.
With A49U G56A, the self-cleavage was 0.136.
As to G51A U52A, the self-cleavage was determined as 1.15.
C48G G56C: the self-cleavage stood at 0.922.
Regarding C48G G56A, the self-cleavage is 0.124.
With C48G G68C, the self-cleavage came out at 0.189.
For C50A G69A, the self-cleavage was determined as 0.152.
The figure for A47U G56A is 0.187.
Take A47U G56C: the self-cleavage stood at 0.125.
C50G C66G: the self-cleavage was found to be 0.0636.
For G51C U63G, the self-cleavage was determined as 0.0973.
With G51C U63A the figure was 0.199.
Turning to C48G U62A, the self-cleavage was 0.0564.
With C50G A71G the figure was 0.202.
C50G A71U: the self-cleavage is 0.148.
The figure for C48G A59G is 0.129.
For the variant C48U U70A, the self-cleavage was determined as 0.152.
On to C48U U70G, for which the self-cleavage was determined as 0.211.
As to C50G G54C, the self-cleavage is 0.634.
Consider C50U G68C, for which the self-cleavage worked out at 0.246.
As for A49U U70A, the self-cleavage is 0.237.
In the case of U52A A64U, the self-cleavage is 0.177.
In the case of C50A U60G, the self-cleavage is 0.248.
Take A49C G54A: the self-cleavage amounted to 0.235.
Consider A49C U52A, for which the self-cleavage was found to be 0.0356.
On to A49C U52G, for which the self-cleavage turned out to be 0.14.
Regarding U52C G68C, the self-cleavage came to 0.219.
With U52C G68U the figure was 0.311; with U52C G68A, 0.258.
With C48G C50U the figure was 0.177.
Take C48G C50G: the self-cleavage was 0.137.
With C48G C50A, the self-cleavage stood at 0.0785.
On to U52G A61C, for which the self-cleavage is 0.147.
Consider A47G G54U, for which the self-cleavage came to 0.163.
The figure for A47U U70C is 0.0521; for U52C A71G it is 1.08; for U52C A71C it is 1.51.
The figure for G51A A64G is 0.666; for G51C U58A it is 0.653.
As to G51U G54U, the self-cleavage worked out at 0.508.
Take G51U G54A: the self-cleavage was 0.72.
As to U52C U53A, the self-cleavage was determined as 1.07.
As for A47U U58G, the self-cleavage turned out to be 0.137.
With A47U U58C the figure was 0.133; with A49C U55A, 0.164; with A47U U62G, 0.158.
For the variant C48G U55A, the self-cleavage worked out at 0.148.
For the variant G51C A64C, the self-cleavage was found to be 0.156.
Consider G51C A64G, for which the self-cleavage came out at 0.521.
On to G51C G57C, for which the self-cleavage came out at 0.152.
Consider A47U A71C, for which the self-cleavage was 0.304.
As for C48U C65U, the self-cleavage stood at 0.154.
With U52G C66G, the self-cleavage came out at 0.215.
Consider C48A U62C, for which the self-cleavage turned out to be 0.207.
In the case of A49G U67C, the self-cleavage was 0.125.
On to A49G U67G, for which the self-cleavage was 0.195.
On to C50U U60A, for which the self-cleavage turned out to be 0.251.
Consider A49C U63C, for which the self-cleavage turned out to be 0.
With G51U U53G the figure was 0.707.
G51A C66U: the self-cleavage is 0.574.
Turning to A47G U52A, the self-cleavage was found to be 0.0547.
Consider U52G U53C, for which the self-cleavage was determined as 1.
With A49C A61G the figure was 0.172; with U52A U62G, 0.0279; with U52A U62C, 0.187.
As to C50A U55G, the self-cleavage was determined as 0.419.
For the variant C50A U55A, the self-cleavage came to 0.6.
Regarding C48G A49C, the self-cleavage turned out to be 0.223.
Turning to G51C U70A, the self-cleavage stood at 0.898.
Consider G51C U70C, for which the self-cleavage came out at 1.01.
For G51A G56U, the self-cleavage amounted to 0.166.
Regarding G51U U58A, the self-cleavage is 0.439.
Turning to U52A U55G, the self-cleavage is 0.372.
In the case of G51U U63A, the self-cleavage was determined as 0.215.
With G51U U63G the figure was 0.16; with A49G G69C, 0.186.
With A49G G69A the figure was 0.172.
Take C48A G57U: the self-cleavage came to 0.115.
As for A47U A61C, the self-cleavage was 0.243.
With A47U A61G the figure was 0.147; with A49U A64C, 0.163; with A49U A64G, 0.145.
Take C48U A71U: the self-cleavage is 0.146.
C48U A71C: the self-cleavage is 0.387.
As for A47G U70C, the self-cleavage was 0.1.
Turning to A47G U70G, the self-cleavage worked out at 0.115.
For A49U U62A, the self-cleavage amounted to 0.186.
Turning to A49G U60C, the self-cleavage amounted to 0.722.
With A49G U60A the figure was 0.475; with A49G A59U, 0.131; with U52G C65A, 0.782.
The figure for A49G U53A is 0.4.
